For six molecules, binding result and Kd results are on record in PMC9318713, “Exploring the Utility of ssDNA Aptamers Directed against Snake Venom Toxins as New Therapeutics for Snakebite Envenoming”.

For data set [1], the target named is T1, batroxobin (recombinant SVSP) (Bothrops atrox? (printed B. atrox), UniProt P04971 25-255). Briefly: fluorescence bead binding assay. Particulars: protein: recombinant; label: 6-FAM.
For data set [2], the target named is T1, batroxobin (recombinant SVSP). Briefly: fluorescence bead binding assay; 2 mM Mg2+. The note with it: protein: recombinant; label: 6-FAM (Kd); HRP (ALISA).
Data set [3] deals with T2, ancrod (recombinant SVSP) (Calloselasma rhodostoma? (printed C. …, UniProt P26324 1-234)).
T2 sequence: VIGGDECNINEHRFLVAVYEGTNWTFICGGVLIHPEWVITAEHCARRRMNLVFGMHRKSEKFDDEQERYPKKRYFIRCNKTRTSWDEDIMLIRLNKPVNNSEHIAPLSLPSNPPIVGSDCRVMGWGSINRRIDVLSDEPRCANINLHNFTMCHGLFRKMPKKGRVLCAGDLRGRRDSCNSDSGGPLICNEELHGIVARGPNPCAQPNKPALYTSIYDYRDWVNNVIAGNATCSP
Put plainly: fluorescence bead binding assay; 2 mM Mg2+; Kd: 50 mM Tris-HCl pH 7.5, 150 mM NaCl, 2 mM MgCl2, RT, 1 h, toxin on Sepharose beads; ALISA: 100 ng toxin coated, aptamer in nuclease-free water, RT, 2 h, PBST. Particulars: protein: recombinant; label: 6-FAM (Kd); HRP (ALISA).

Data set [4] concerns the target T2, ancrod (recombinant SVSP). Briefly: fluorescence bead binding assay; 2 mM Mg2+; Kd only in figure, within 3.0-17.8 nM; Kd: 50 mM Tris-HCl pH 7.5, 150 mM NaCl, 2 mM MgCl2, RT, 1 h, toxin on Sepharose beads; ALISA: 100 ng toxin coated, aptamer in nuclease-free water, RT, 2 h, PBST. The note with it: protein: recombinant; label: 6-FAM.

T1 sequence (P04971 25-255): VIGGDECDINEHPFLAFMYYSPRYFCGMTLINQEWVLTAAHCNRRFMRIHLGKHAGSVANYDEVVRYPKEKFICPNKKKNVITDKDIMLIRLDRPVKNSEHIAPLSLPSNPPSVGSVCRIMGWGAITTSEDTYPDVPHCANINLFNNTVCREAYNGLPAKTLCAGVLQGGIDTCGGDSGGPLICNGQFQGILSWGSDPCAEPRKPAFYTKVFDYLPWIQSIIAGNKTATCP

As for TAGTAACAGGTCTGCTTAGGCTTGCGAGGAGTACTAGTAT (ssDNA) [batroxobin-5], in data set [1], the binding result is reported as “binds”.

In the case of AGGTCCTATTGTATACAGGGAGCCCTCGGTCTTGCTGTGA (ssDNA) [batroxobin-29], the binding result in data set [1] was “binds”.

In general, Kd refers to the free concentration of one partner at which half of the binding sites on the other are occupied at equilibrium, for simple one-to-one binding. Turning to TGTCTGGTATGCAAAGGACTGCTGTACTGTTAGCTTTTGT (ssDNA) [batroxobin-26], the Kd in data set [2] turned out to be 4.7 nM.

With GGACCGACCCTTTAGCATTTATGACCCTTGTCATCGGGCT (ssDNA) [ancrod-55], the Kd in data set [3] worked out at 3 nM.

Consider TGGTCTAAGGACTGCTTAGGATTGCGATATGGTCCAGATG (ssDNA) [ancrod-11], for which the binding result in data set [4] was “binds”.

With TAGCATGGGTGGTCAATTTAAGTACAGTGTCGTGCTCACT (ssDNA) [ancrod-7], the binding result in data set [4] is on record as “binds”.
